Experiments:
[1] = molecular target: T1, 人BCMA全长 (K562-BCMA细胞株和CHO-BCMA细胞株表面表达) (human, UniProt Q02223 1-184); experiment: flow cytometry on K562-BCMA and CHO-BCMA cells, APC anti-human IgG Fc
T1 construct: whole, on cells; also called BCMA表达阳性的细胞
T1 sequence (looked up): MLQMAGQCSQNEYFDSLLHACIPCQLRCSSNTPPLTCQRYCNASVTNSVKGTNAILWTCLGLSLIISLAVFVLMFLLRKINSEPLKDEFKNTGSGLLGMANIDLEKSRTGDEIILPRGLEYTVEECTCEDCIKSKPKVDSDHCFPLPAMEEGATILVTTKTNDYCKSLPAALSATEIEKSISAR

h BCMA ECD mFc = molecular target: T2, h BCMA ECD mFc (human, UniProt Q02223 1-54); experiment: BLI (Fortebio), h BCMA ECD mFc 3 ug/mL loaded on AMC biosensor, antibody in solution
T2 construct: extracellular domain; also called hBCMA-mFc; not shown: mouse Fc (mFc)
T2 sequence (looked up): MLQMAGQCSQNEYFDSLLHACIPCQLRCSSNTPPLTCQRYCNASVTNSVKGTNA

[2] = molecular target: T3, hu(人)BCMA ECD His, ACRO, BCA-H522y (human, UniProt Q02223 1-54); experiment: ELISA, hu BCMA ECD His coated at 2 μg/mL
T3 construct: extracellular domain; Bought reagent; also called hu BCMA ECD His; BCMA抗原; not shown: His tag
T3 sequence (looked up): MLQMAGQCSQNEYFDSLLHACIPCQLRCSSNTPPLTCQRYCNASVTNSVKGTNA

binding result [1]: binds | binding result (h BCMA ECD mFc): binds | binding result [2]: binds
B1: 鼠源BCMA抗体 mVH-mVL (CN201911298620.7专利中5E2 BCMA抗体) (antibody, V domains shown)
VH: EVQLQQSGPELIKPGASVKMSCKASGYTFTSYVVHWVKQKPGQGLEWIGYIIPYNDDTKYNEKFKGKATLTSDKSSSTAYMELSSLTSEDSAVYYCARWDYDDGYFDYWGQGTTLTVSS
VL: DVVMTQTPLSLPVTLGDQASISCRSSQSLLHSNGNTYLHWYLQKPGQSPKLLIYKVSNRFSGVPDRFSGSGSGTDFTLKISRVEAEDLGVYFCSQITHIPFTFGSGTKLEIKR
notes: In flow cytometry the detection reagent was APC anti-human IgG Fc

Reference: patent publication CN114634568A (SHENZHEN PHENPENG BIOTHERAPY CO LTD, dated 2022)
